These results are taken from paper PMC4748816 (RNA, 2016).

Series [1] deals with Alexa Fluor 647-labeled Loqs-3 (Loqs-3^AF647), single-labeled dimer fraction (Drosophila) (UniProt Q9VJY9). The experiment in a line: SEC.
The target in series [2] is GST-Loqs-3 (minimal linker plus dsRBD3) (Drosophila) (UniProt Q9VJY9). The experiment in a line: pull-down.
Series [3] concerns the target His-tagged GFP-dmDcr1 (Drosophila) (UniProt Q9VCU9). The experiment in a line: fluorescence cross-correlation spectroscopy.
The next series has as its target His-tagged GFP-dmDcr1 (Drosophila, UniProt Q9VCU9 1-2249). The experiment in a line: fluorescence cross-correlation spectroscopy.
The series “SEC” concerns the molecule itself. The experiment in a line: SEC. For orientation: Size exclusion chromatography separates by hydrodynamic size, large species first.

Numbering of substitutions follows the chain as printed. Names may count otherwise.

His-tagged GFP-dmDcr1, sequence (Q9VCU9 whole entry): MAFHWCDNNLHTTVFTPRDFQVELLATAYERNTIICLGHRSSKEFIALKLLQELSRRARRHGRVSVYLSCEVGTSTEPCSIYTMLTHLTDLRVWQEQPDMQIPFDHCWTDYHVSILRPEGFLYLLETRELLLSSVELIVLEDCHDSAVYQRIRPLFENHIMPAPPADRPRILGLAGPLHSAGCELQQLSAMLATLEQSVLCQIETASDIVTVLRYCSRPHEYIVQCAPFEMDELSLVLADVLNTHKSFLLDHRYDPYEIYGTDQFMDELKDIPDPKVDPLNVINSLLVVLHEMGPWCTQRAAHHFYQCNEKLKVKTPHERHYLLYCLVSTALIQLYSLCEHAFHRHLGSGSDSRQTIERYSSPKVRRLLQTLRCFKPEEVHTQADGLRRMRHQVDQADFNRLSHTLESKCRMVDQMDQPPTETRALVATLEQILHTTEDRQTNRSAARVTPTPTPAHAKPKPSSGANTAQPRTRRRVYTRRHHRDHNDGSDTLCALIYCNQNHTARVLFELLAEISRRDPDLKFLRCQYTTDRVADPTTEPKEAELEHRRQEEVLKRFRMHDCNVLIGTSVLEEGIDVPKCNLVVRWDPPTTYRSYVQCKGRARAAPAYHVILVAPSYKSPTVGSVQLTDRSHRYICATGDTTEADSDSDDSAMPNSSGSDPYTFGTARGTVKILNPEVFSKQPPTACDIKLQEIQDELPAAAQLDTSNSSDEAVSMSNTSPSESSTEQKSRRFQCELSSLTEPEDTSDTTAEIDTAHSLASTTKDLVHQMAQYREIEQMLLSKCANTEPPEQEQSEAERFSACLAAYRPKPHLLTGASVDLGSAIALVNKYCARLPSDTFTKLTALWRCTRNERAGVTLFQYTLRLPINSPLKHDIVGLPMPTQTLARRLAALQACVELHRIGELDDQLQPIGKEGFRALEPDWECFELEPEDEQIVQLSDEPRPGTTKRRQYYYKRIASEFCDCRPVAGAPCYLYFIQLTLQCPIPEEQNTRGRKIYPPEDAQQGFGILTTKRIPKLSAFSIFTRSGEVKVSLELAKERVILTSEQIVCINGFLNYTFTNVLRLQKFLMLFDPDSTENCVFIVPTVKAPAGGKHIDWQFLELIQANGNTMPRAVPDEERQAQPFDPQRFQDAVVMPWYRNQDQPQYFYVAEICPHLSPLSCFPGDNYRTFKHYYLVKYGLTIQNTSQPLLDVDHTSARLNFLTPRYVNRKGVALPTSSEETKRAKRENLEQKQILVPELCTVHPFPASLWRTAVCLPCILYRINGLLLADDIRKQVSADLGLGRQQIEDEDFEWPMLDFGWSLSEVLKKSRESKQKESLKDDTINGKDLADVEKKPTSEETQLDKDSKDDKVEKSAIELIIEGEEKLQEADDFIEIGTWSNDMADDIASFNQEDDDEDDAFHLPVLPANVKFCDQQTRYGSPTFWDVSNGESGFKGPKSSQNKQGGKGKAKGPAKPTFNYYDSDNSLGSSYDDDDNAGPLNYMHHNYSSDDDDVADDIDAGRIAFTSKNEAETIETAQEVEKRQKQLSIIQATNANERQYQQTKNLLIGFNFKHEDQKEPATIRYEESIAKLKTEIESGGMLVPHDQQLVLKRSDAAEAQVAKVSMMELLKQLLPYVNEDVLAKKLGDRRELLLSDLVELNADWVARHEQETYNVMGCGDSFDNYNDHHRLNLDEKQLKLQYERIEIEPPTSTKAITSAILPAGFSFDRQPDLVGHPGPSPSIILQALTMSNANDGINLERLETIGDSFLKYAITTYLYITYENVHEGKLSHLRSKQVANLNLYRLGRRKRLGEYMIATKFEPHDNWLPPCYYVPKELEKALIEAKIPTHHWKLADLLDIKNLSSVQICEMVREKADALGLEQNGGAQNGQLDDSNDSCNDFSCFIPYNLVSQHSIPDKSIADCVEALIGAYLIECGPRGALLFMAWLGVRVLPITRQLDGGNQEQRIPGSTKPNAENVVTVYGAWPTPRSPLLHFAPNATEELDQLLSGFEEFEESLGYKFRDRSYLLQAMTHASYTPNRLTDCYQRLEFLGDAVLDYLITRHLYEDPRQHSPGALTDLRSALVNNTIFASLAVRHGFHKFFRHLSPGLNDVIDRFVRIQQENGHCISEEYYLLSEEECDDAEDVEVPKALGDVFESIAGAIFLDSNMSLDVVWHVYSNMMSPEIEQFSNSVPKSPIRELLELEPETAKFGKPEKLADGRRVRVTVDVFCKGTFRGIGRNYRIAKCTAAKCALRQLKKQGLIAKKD
His-tagged GFP-dmDcr1 (Drosophila), sequence (Q9VCU9 whole entry): as above

A word on the stoichiometry N: it is the number of molecules, sites or subunits per partner or assembly. Take “Alexa Fluor 647-labeled Loqs-3 (Loqs-3^AF647), single-labeled dimer fraction (from UniProt Q9VJY9 368-463) (domain or fragment)”: the stoichiometry N in series [1] worked out at 2.
For the molecule “His-tagged dmDcr1 (Drosophila Dicer1), Q9VCU9 1-2249”, the fold binding against dsRBD3 alone in series [2] is 10 fold.
For orientation: Kd means a measure of binding affinity in units of concentration. Consider “Alexa Fluor 647-labeled dsRBD3 (dsRDB3^AF647) (from UniProt Q9VJY9 392-463) (domain or fragment)”, for which, in series [3], the Kd was 192 nM.

B1: Loqs dsRBD3, unlabeled, purified (domain or fragment, Drosophila)
chain: IDYIKLLGEIATENQFEVTYVDIEEKTFSGQFQCLVQLSTLPVGVCHGSGPTAADAQRHAAQNALEYLKIMT
By IC50 is commonly meant the concentration that gives 50% inhibition. A higher IC50 goes with weaker potency in that assay. For orientation: Ki means a measure of affinity in units of concentration, obtained from inhibition or displacement. Low values mean a stronger hold on the target, high ones a looser hold on the target. On to B1, for which, in the series with His-tagged GFP-dmDcr1, the IC50 is 104 nM and the affinity corresponds to a Ki of 43.6 nM.

B2: Loqs-3, unlabeled, purified (domain or fragment, Drosophila, UniProt Q9VJY9 368-463, looked up)
chain: HKTLKNATGKKLLKLQKTCLKNNKIDYIKLLGEIATENQFEVTYVDIEEKTFSGQFQCLVQLSTLPVGVCHGSGPTAADAQRHAAQNALEYLKIMT
Regarding B2, in the series with His-tagged GFP-dmDcr1, the IC50 worked out at 9.3 nM and the Ki is 3.6 nM.

B3: Loqs-3 K460E (size-exclusion chromatography) (domain or fragment, Drosophila, UniProt Q9VJY9 368-463, looked up)
chain: B2 chain with K93E
On to B3, for which the binding result in “SEC” is recorded as “binds”.
